From patent US20030073629

B1: Omi-deltaAVPS (C-terminal His6-tagged recombinant mature Omi with the AVPS motif deleted) (protein)
chain: PPPASPRSQYNFIADVVEKTAPAVVYIEILDRHPFLGREVPISNGSGFVVAADGLIVTNAHVVADRRRVRVRLLSGDTYEAVVTAVDPVADIATLRIQTKEPLPTLPLGRSADVRQGEFVVAMGSPFALQNTITSGIVSSAQRPARDLGLPQTNVEYIQTDAAIDFGNSGGPLVNLDGEVIGVNTMKVTAGISFAIPSDRLREFLHRGEKKNSSSGISGSQRRYIGVMMLTLSPSILAELQLREPSFPDVQHGVLIHKVILGSPAHRAGLRPGDVILAIGEQMVQNAEDVYEAVRTQSQLAVQIRRGRETLTLYVTPEVTEHHHHHH
B2: C-terminal His6-tagged recombinant wild type mature Omi (Omi lacking the first 133 residues) (protein)
chain: AVPSPPPASPRSQYNFIADVVEKTAPAVVYIEILDRHPFLGREVPISNGSGFVVAADGLIVTNAHVVADRRRVRVRLLSGDTYEAVVTAVDPVADIATLRIQTKEPLPTLPLGRSADVRQGEFVVAMGSPFALQNTITSGIVSSAQRPARDLGLPQTNVEYIQTDAAIDFGNSGGPLVNLDGEVIGVNTMKVTAGISFAIPSDRLREFLHRGEKKNSSSGISGSQRRYIGVMMLTLSPSILAELQLREPSFPDVQHGVLIHKVILGSPAHRAGLRPGDVILAIGEQMVQNAEDVYEAVRTQSQLAVQIRRGRETLTLYVTPEVTEHHHHHH
B3: Omi-S306A (C-terminal His6-tagged recombinant mature Omi, active site Ser306 to Ala) (protein)
chain: AVPSPPPASPRSQYNFIADVVEKTAPAVVYIEILDRHPFLGREVPISNGSGFVVAADGLIVTNAHVVADRRRVRVRLLSGDTYEAVVTAVDPVADIATLRIQTKEPLPTLPLGRSADVRQGEFVVAMGSPFALQNTITSGIVSSAQRPARDLGLPQTNVEYIQTDAAIDFGNAGGPLVNLDGEVIGVNTMKVTAGISFAIPSDRLREFLHRGEKKNSSSGISGSQRRYIGVMMLTLSPSILAELQLREPSFPDVQHGVLIHKVILGSPAHRAGLRPGDVILAIGEQMVQNAEDVYEAVRTQSQLAVQIRRGRETLTLYVTPEVTEHHHHHH

biological target: XIAP, P98170
Sequence (P98170 whole entry): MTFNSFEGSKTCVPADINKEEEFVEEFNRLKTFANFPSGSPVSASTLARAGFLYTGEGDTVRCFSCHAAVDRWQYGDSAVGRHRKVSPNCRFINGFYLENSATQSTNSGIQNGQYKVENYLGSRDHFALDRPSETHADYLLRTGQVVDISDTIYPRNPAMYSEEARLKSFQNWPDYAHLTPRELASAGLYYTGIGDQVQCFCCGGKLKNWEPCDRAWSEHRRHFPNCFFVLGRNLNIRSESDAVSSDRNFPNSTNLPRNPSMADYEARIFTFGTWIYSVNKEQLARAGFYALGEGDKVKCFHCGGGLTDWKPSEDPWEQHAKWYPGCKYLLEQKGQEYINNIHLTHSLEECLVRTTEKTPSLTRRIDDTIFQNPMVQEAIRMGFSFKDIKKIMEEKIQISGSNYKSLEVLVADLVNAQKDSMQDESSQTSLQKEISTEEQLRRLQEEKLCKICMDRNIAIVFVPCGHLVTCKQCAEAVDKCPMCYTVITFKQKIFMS

How did the “procaspase-3 activation in XIAP-containing S100 extracts stimulated with cytochrome c and dATP” value (“procaspase-3 activation” for short) turn out when B1 was run?
The value was “deletion of this motif abolished its caspase-promoting activity”.

Which “procaspase-3 activation” value does the source give for B2 here?
Its value is “mature WT Omi or the S306A mutant were able to promote procaspase-3 activation in the XIAP-containing S100 extracts almost to the same extent as Smac”.

How did the “procaspase-3 activation” value turn out when B3 was run?
Its value is “mature WT Omi or the S306A mutant were able to promote procaspase-3 activation in the XIAP-containing S100 extracts almost to the same extent as Smac”.
